The results in this text go back to US20130039923A1 (Novo Nordisk, published 2013).

Experiment [1] addresses T1, Peptide no. 41 (Figure 8A).
T1 construct: Ala-scan peptide on the array; also called Peptide no; Q75A
T1 peptide: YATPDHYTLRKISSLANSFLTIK
The experiment can be described thus: Ala-scan peptide array of hIL20 74-96 on cellulose; fluorescein-labelled antibody; fluorescence as OD.
Procedure: (§1) The screenings were done using fluorescence labelled antibodies. The labelling was done by gel-filtering the antibody stock against 1% NaHCO3, using NAP5 column (GE Healthcare according the manual from manufacturer. This was followed by adding 25 mole equivalents of 5(6)-carboxyfluorescein N-hydroxysuccinimide ester (Sigma, C1609) dissolved in DMSO. The coupling was allowed to continue for 2 hours followed by a gelfiltration against TRIS washing buffer (50 mM TRIS, pH=7.4, 0.15M NaCl, 0.1 M ArgHCl, 0.05% Tween 20) in order to removed uncoupled fluorescein.
(§2) Screening of arrays were done by adding 10 μl of antibody to 30 ml incubation buffer (0.5% BSA, 50 mM TRIS, pH=7.4, 0.15M NaCl, 0.1 M ArgHCl, 0.05% Tween 20). The sheets were incubated for 1-2 hours, followed by washing five times with washing buffer. […] The fluorescence intensity were measured and transformed into digits that were exported to Prism 5 (Graph Pad Software, USA) for further analysis.

Experiment [2] concerns the target T2, Peptide no. 43 (Figure 8A).
T2 construct: Ala-scan peptide on the array; also called Peptide no; P77A
T2 peptide: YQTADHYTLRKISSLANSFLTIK
Described as above.
Procedure: as §1, §2

The target of experiment [3] is T3, Peptide no. 46 (Figure 8A).
T3 construct: Ala-scan peptide on the array; also called Peptide no; Y80A
T3 peptide: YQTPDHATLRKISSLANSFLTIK
The experiment is described as above.
Procedure: as §1, §2

Experiment [4] concerns the target T4, Peptide no. 47 (Figure 8A).
T4 construct: Ala-scan peptide on the array; also called Peptide no; T81A
T4 peptide: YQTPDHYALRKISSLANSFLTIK
The experiment is described as above.
Procedure: as §1, §2

The target of experiment [5] is T5, Peptide no. 48 (Figure 8A).
T5 construct: Ala-scan peptide on the array; also called Peptide no; L82A
T5 peptide: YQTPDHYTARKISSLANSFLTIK
Described as above.
Procedure: as §1, §2

In experiment [6] the target is T6, Peptide no. 52 (Figure 8A).
T6 construct: Ala-scan peptide on the array; also called Peptide no; S86A
T6 peptide: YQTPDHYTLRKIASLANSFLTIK
Described as above.
Procedure: as §1, §2

The target in experiment [7] is T7, Peptide no. 56 (Figure 8A).
T7 construct: Ala-scan peptide on the array; also called Peptide no; S91A
T7 peptide: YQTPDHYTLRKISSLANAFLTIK
The experiment is described as above.
Procedure: as §1, §2

For experiment [8], the target named is T8, Peptide no. 58 (Figure 8A).
T8 construct: Ala-scan peptide on the array; also called Peptide no; L93A
T8 peptide: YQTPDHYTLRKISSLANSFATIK
The experiment is described as above.
Procedure: as §1, §2

Experiment [9] addresses T9, Peptide no. 59 (Figure 8A).
T9 construct: Ala-scan peptide on the array; also called Peptide no; T94A
T9 peptide: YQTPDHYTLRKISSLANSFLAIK
The description is as above.
Procedure: as §1, §2

Experiment [10] deals with T10, Peptide no. 60 (Figure 8A).
T10 construct: Ala-scan peptide on the array; also called Peptide no; I95A
T10 peptide: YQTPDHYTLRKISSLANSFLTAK
The experiment is described as above.
Procedure: as §1, §2

Experiment [11] has as its target T11, Peptide no. 86 (Figure 6A).
T11 construct: also called Peptide no
T11 peptide: NYQTPDHYTLRKISSLAN
Briefly: 18mer hIL20 peptide array on cellulose, 4 residue walk; fluorescein-labelled antibody; fluorescence as OD.
Procedure: as §1, §2

The target in experiment [12] is T12, Peptide no. 87 (Figure 6A).
T12 construct: also called Peptide no
T12 peptide: PDHYTLRKISSLANSFLT
Described as above.
Procedure: as §1, §2

Experiment [13] addresses T11, Peptide no. 86 (Figure 6A). The description is as above.
Procedure: as §1, §2
The target of experiment [14] is T12, Peptide no. 87 (Figure 6A). Described as above.
Procedure: as §1, §2
In experiment [15] the target is T13, Peptide no. 2 (Figures 7A, 7B) (N-terminus acylated).
T13 construct: peptide array on cellulose
T13 peptide: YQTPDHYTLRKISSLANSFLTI
Briefly: array of terminally truncated, acylated hIL20 peptides on cellulose; fluorescein-labelled antibody; fluorescence as OD.
Procedure: as §1, §2

In experiment [16] the target is T14, Peptide no. 4 (Figures 7A, 7B) (N-terminus acylated).
T14 construct: peptide array on cellulose
T14 peptide: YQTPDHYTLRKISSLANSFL
Described as above.
Procedure: as §1, §2

For experiment [17], the target named is T15, Peptide no. 5 (Figures 7A, 7B) (also: N-terminus acylated).
T15 construct: peptide array on cellulose
T15 peptide: YQTPDHYTLRKISSLANSF
The experiment is described as above.
Procedure: as §1, §2

The target of experiment [18] is T16, Peptide no. 6 (Figures 7A, 7B) (also: N-terminus acylated).
T16 construct: peptide array on cellulose
T16 peptide: YQTPDHYTLRKISSLANS
The experiment is described as above.
Procedure: as §1, §2

For experiment [19], the target named is T17, Peptide no. 14 (Figures 7A, 7B) (N-terminus acylated).
T17 construct: peptide array on cellulose
T17 peptide: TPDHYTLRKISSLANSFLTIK
The description is as above.
Procedure: as §1, §2

For experiment [20], the target named is T18, Peptide no. 15 (Figures 7A, 7B) (N-terminus acylated).
T18 construct: peptide array on cellulose
T18 peptide: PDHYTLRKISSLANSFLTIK
The experiment is described as above.
Procedure: as §1, §2

Experiment [21] deals with T19, Peptide no. 16 (Figures 7A, 7B) (also: N-terminus acylated).
T19 construct: peptide array on cellulose
T19 peptide: DHYTLRKISSLANSFLTIK
The experiment is described as above.
Procedure: as §1, §2

For experiment [22], the target named is T20, Peptide no. 18 (Figures 7A, 7B) (also: N-terminus acylated).
T20 construct: peptide array on cellulose
T20 peptide: YTLRKISSLANSFLTIK
The description is as above.
Procedure: as §1, §2

The target of experiment [23] is T21, Peptide no. 1 (Figures 7A, 7B) (N-terminus acylated).
T21 construct: peptide array on cellulose
T21 peptide: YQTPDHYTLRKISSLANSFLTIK
The description is as above.
Procedure: as §1, §2

Where a chain is given by its changes, count along the chain named. Where two headings read alike, the source gives them in different places. Ends that are not written are not given here.

B1: human anti-hIL20 monoclonal antibody 15D2 (antibody, V domains shown)
VH: QVQLVQSGAEVKRPGASVKVSCKASGYTFTNDIIHWVRQAPGQRLEWMGWINAGYGNTQYSQNFQDRVSITRDTSASTAYMELISLRSEDTAVYYCAREPLWFGESSPHDYYGMDVWGQGTTVTVSS
VL: AIQLTQSPSSLSASVGDRVTITCRASQGISSALAWYQQKPGKAPKLLIYDASSLESGVPSRFSGSGSGTDFTLTISSLQPEDFATYYCQQFNSYPLTFGGGTKVEIKR
notes: also called 15D2-wt; 15D2 wild-type
For B1, the binding result in experiment [1], in experiment [2], in experiment [3], in experiment [4], in experiment [5] and in [6] was “binds” in each case. Also, the binding result in experiment [7], in experiment [8], in experiment [9], in experiment [10], in experiment [11] and in experiment [12] was “binds” throughout.

B2: human anti-hIL20 monoclonal antibody 5B7 (antibody, human IgG4, V domains shown)
VH: B1 VH with T30S, N31S, D32H, I34M, Q59K, S69T, S106L
VL: B1 VL
notes: described as human IgG4; also called 5B7-wt
B2: the binding result in [13], in experiment [14], in experiment [15], in [16], in experiment [17] and in experiment [18] was “binds” in each case. The binding result is given as “binds” in [19]; “binds” in experiment [20]; “binds” in experiment [21]; “no binding” in experiment [22]; “binds” in experiment [23].
